In patent US20250206821A1 (Hoffmann-La Roche, published 2025):

B1: anti-bio/anti-fluos bsAb (bio 2/3-IgG with E357K MHCFcRP x fluos 2/3-IgG with K370E MHCFcRP) (bispecific antibody)
heavy 1: not shown
light 1: DIQMTQSPSSLSASVGDRVTITCRASGNIHNYLSWYQQKPGKVPKLLIYSAKTLADGVPSRFSGSGSGTDFTLTISSLQPEDVATYYCQHFWSSIYTFGQGTKLEIKRTVAAPSVFIFPPSDEQLKSGTASVVCLLNNFYPREAKVQWKVDNALQSGNSQESVTEQDSKDSTYSLSSTLTLSKADYEKHKVYACEVTHQGLSSPVTKSFNRGEC
heavy 2: not shown
light 2: DIVMTQTPLSLSVTPGQPASISCKSSQSLVHSNGNTYLRWYLQKPGQSPKVLIYKVSNRVSGVPDRFSGSGSGTDFTLKISRVEAEDVGVYYCSQSTHVPWTFGQGTKLEIKRTVAAPSVFIFPPSDEQLKSGTASVVCLLNNFYPREAKVQWKVDNALQSGNSQESVTEQDSKDSTYSLSSTLTLSKADYEKHKVYACEVTHQGLSSPVTKSFNRGEC
notes: Product of the 2/3-IgG exchange reaction, assayed as reaction mix; also called bio fluos
B2: anti-bio/anti-PDGF bsAb (bio 2/3-IgG with E357K MHCFcRP x PDGF 2/3-IgG with K370E MHCFcRP) (bispecific antibody)
heavy 1: not shown
light 1: DIQMTQSPSSLSASVGDRVTITCRASGNIHNYLSWYQQKPGKVPKLLIYSAKTLADGVPSRFSGSGSGTDFTLTISSLQPEDVATYYCQHFWSSIYTFGQGTKLEIKRTVAAPSVFIFPPSDEQLKSGTASVVCLLNNFYPREAKVQWKVDNALQSGNSQESVTEQDSKDSTYSLSSTLTLSKADYEKHKVYACEVTHQGLSSPVTKSFNRGEC
heavy 2: EVQLVESGGGLVQPGGSLRLSCAASGFTFSSYWMSWVRQAPEKGLEWVSTISDGGGLTYYADSVKGRFTISRDNAKNSLYLQMNSLRAEDTAVYYCAESGGYTDWLFGYWGQGTLVTVSSASTKGPSVFPLAPSSKSTSGGTAALGCLVKDYFPEPVTVSWNSGALTSGVHTFPAVLQSSGLYSLSSVVTVPSSSLGTQTYICNVNHKPSNTKVDKKVEPKSC
light 2: not shown
notes: Product of the 2/3-IgG exchange reaction, assayed as reaction mix; also called bio PDGF; not shown: residue limits no
B3: anti-dig/anti-bio bsAb (dig 2/3-IgG with E357K MHCFcRP x bio 2/3-IgG with K370E MHCFcRP) (bispecific antibody)
heavy 1: QVQLVESGGGLVKPGGSLRLSCAASGFTFSDYAMSWIRQAPGKGLEWVSSINIGATYIYYADSVKGRFTISRDNAKNSLYLQMNSLRAEDTAVYYCARPGSPYEYDKAYYSMAYWGQGTTVTVSSASTKGPSVFPLAPSSKSTSGGTAALGCLVKDYFPEPVTVSWNSGALTSGVHTFPAVLQSSGLYSLSSVVTVPSSSLGTQTYICNVNHKPSNTKVDKKVEPKSC
light 1: not shown
heavy 2: not shown
light 2: DIQMTQSPSSLSASVGDRVTITCRASGNIHNYLSWYQQKPGKVPKLLIYSAKTLADGVPSRFSGSGSGTDFTLTISSLQPEDVATYYCQHFWSSIYTFGQGTKLEIKRTVAAPSVFIFPPSDEQLKSGTASVVCLLNNFYPREAKVQWKVDNALQSGNSQESVTEQDSKDSTYSLSSTLTLSKADYEKHKVYACEVTHQGLSSPVTKSFNRGEC
notes: Product of the 2/3-IgG exchange reaction, assayed as reaction mix; also called dig bio; not shown: residue limits no
B4: anti-fluos/anti-dig bsAb (fluos 2/3-IgG with E357K MHCFcRP x dig 2/3-IgG with K370E MHCFcRP) (bispecific antibody)
heavy 1: not shown
light 1: DIVMTQTPLSLSVTPGQPASISCKSSQSLVHSNGNTYLRWYLQKPGQSPKVLIYKVSNRVSGVPDRFSGSGSGTDFTLKISRVEAEDVGVYYCSQSTHVPWTFGQGTKLEIKRTVAAPSVFIFPPSDEQLKSGTASVVCLLNNFYPREAKVQWKVDNALQSGNSQESVTEQDSKDSTYSLSSTLTLSKADYEKHKVYACEVTHQGLSSPVTKSFNRGEC
heavy 2: QVQLVESGGGLVKPGGSLRLSCAASGFTFSDYAMSWIRQAPGKGLEWVSSINIGATYIYYADSVKGRFTISRDNAKNSLYLQMNSLRAEDTAVYYCARPGSPYEYDKAYYSMAYWGQGTTVTVSSASTKGPSVFPLAPSSKSTSGGTAALGCLVKDYFPEPVTVSWNSGALTSGVHTFPAVLQSSGLYSLSSVVTVPSSSLGTQTYICNVNHKPSNTKVDKKVEPKSC
light 2: not shown
notes: Product of the 2/3-IgG exchange reaction, assayed as reaction mix; also called fluos dig; not shown: residue limits no
B5: anti-dig/anti-fluos bsAb (dig 2/3-IgG with E357K MHCFcRP x fluos 2/3-IgG with K370E MHCFcRP) (bispecific antibody)
heavy 1: QVQLVESGGGLVKPGGSLRLSCAASGFTFSDYAMSWIRQAPGKGLEWVSSINIGATYIYYADSVKGRFTISRDNAKNSLYLQMNSLRAEDTAVYYCARPGSPYEYDKAYYSMAYWGQGTTVTVSSASTKGPSVFPLAPSSKSTSGGTAALGCLVKDYFPEPVTVSWNSGALTSGVHTFPAVLQSSGLYSLSSVVTVPSSSLGTQTYICNVNHKPSNTKVDKKVEPKSC
light 1: not shown
heavy 2: not shown
light 2: DIVMTQTPLSLSVTPGQPASISCKSSQSLVHSNGNTYLRWYLQKPGQSPKVLIYKVSNRVSGVPDRFSGSGSGTDFTLKISRVEAEDVGVYYCSQSTHVPWTFGQGTKLEIKRTVAAPSVFIFPPSDEQLKSGTASVVCLLNNFYPREAKVQWKVDNALQSGNSQESVTEQDSKDSTYSLSSTLTLSKADYEKHKVYACEVTHQGLSSPVTKSFNRGEC
notes: Product of the 2/3-IgG exchange reaction, assayed as reaction mix; also called dig fluos; not shown: residue limits no
B6: anti-bio/anti-dig bsAb (bio 2/3-IgG with E357K MHCFcRP x dig 2/3-IgG with K370E MHCFcRP) (bispecific antibody)
heavy 1: not shown
light 1: DIQMTQSPSSLSASVGDRVTITCRASGNIHNYLSWYQQKPGKVPKLLIYSAKTLADGVPSRFSGSGSGTDFTLTISSLQPEDVATYYCQHFWSSIYTFGQGTKLEIKRTVAAPSVFIFPPSDEQLKSGTASVVCLLNNFYPREAKVQWKVDNALQSGNSQESVTEQDSKDSTYSLSSTLTLSKADYEKHKVYACEVTHQGLSSPVTKSFNRGEC
heavy 2: QVQLVESGGGLVKPGGSLRLSCAASGFTFSDYAMSWIRQAPGKGLEWVSSINIGATYIYYADSVKGRFTISRDNAKNSLYLQMNSLRAEDTAVYYCARPGSPYEYDKAYYSMAYWGQGTTVTVSSASTKGPSVFPLAPSSKSTSGGTAALGCLVKDYFPEPVTVSWNSGALTSGVHTFPAVLQSSGLYSLSSVVTVPSSSLGTQTYICNVNHKPSNTKVDKKVEPKSC
light 2: not shown
notes: Product of the 2/3-IgG exchange reaction, assayed as reaction mix; also called bio dig; not shown: residue limits no
B7: anti-PDGF/anti-bio bsAb (PDGF 2/3-IgG with E357K MHCFcRP x bio 2/3-IgG with K370E MHCFcRP) (bispecific antibody)
heavy 1: EVQLVESGGGLVQPGGSLRLSCAASGFTFSSYWMSWVRQAPEKGLEWVSTISDGGGLTYYADSVKGRFTISRDNAKNSLYLQMNSLRAEDTAVYYCAESGGYTDWLFGYWGQGTLVTVSSASTKGPSVFPLAPSSKSTSGGTAALGCLVKDYFPEPVTVSWNSGALTSGVHTFPAVLQSSGLYSLSSVVTVPSSSLGTQTYICNVNHKPSNTKVDKKVEPKSC
light 1: not shown
heavy 2: not shown
light 2: DIQMTQSPSSLSASVGDRVTITCRASGNIHNYLSWYQQKPGKVPKLLIYSAKTLADGVPSRFSGSGSGTDFTLTISSLQPEDVATYYCQHFWSSIYTFGQGTKLEIKRTVAAPSVFIFPPSDEQLKSGTASVVCLLNNFYPREAKVQWKVDNALQSGNSQESVTEQDSKDSTYSLSSTLTLSKADYEKHKVYACEVTHQGLSSPVTKSFNRGEC
notes: Product of the 2/3-IgG exchange reaction, assayed as reaction mix; also called PDGF bio; not shown: residue limits no
B8: anti-fluos/anti-bio bsAb (fluos 2/3-IgG with E357K MHCFcRP x bio 2/3-IgG with K370E MHCFcRP) (bispecific antibody)
heavy 1: not shown
light 1: DIVMTQTPLSLSVTPGQPASISCKSSQSLVHSNGNTYLRWYLQKPGQSPKVLIYKVSNRVSGVPDRFSGSGSGTDFTLKISRVEAEDVGVYYCSQSTHVPWTFGQGTKLEIKRTVAAPSVFIFPPSDEQLKSGTASVVCLLNNFYPREAKVQWKVDNALQSGNSQESVTEQDSKDSTYSLSSTLTLSKADYEKHKVYACEVTHQGLSSPVTKSFNRGEC
heavy 2: not shown
light 2: DIQMTQSPSSLSASVGDRVTITCRASGNIHNYLSWYQQKPGKVPKLLIYSAKTLADGVPSRFSGSGSGTDFTLTISSLQPEDVATYYCQHFWSSIYTFGQGTKLEIKRTVAAPSVFIFPPSDEQLKSGTASVVCLLNNFYPREAKVQWKVDNALQSGNSQESVTEQDSKDSTYSLSSTLTLSKADYEKHKVYACEVTHQGLSSPVTKSFNRGEC
notes: Product of the 2/3-IgG exchange reaction, assayed as reaction mix; also called fluos bio

Experiments:
VEGF [1] = molecular target: T1, VEGF (UniProt P15692-9 27-147); assay: bridging ELISA, VEGF capture, biocytinamid-Cy5 detection; background signal
T1 construct: also called VEGF121
T1 sequence (looked up): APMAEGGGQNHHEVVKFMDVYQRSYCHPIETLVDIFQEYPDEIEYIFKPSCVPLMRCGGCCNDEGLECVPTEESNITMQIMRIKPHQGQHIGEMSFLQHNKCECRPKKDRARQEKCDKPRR

VEGF [2] = molecular target: T1, VEGF; assay: bridging ELISA on exchange reaction mix; VEGF capture, biocytinamid-Cy5 detection; input 1.3 µM; highest value of the assay = 100%
VEGF [3] = molecular target: T1, VEGF; assay: bridging ELISA, VEGF capture, biocytinamid-Cy5 or digoxygenin-Cy5 detection; background signal
VEGF [4] = molecular target: T1, VEGF; assay: bridging ELISA on exchange reaction mix; VEGF capture, digoxygenin-Cy5 detection; input 1.3 µM; highest value of the assay = 100%
VEGF [5] = molecular target: T1, VEGF; assay: bridging ELISA, VEGF capture, digoxygenin-Cy5 detection; background signal

| Binder | binding result (VEGF [1]) | relative signal intensity (VEGF [2]) [%] | binding result (VEGF [3]) | relative signal intensity (VEGF [4]) [%] | binding result (VEGF [5]) |
| --- | --- | --- | --- | --- | --- |
| B1 | no binding (tested: input molecule concentration 1.3 µM) | 9 | – | – | – |
| B2 | no binding (tested: input molecule concentration 1.3 µM) | 10.1 | – | – | – |
| B3 | – | 9 | no binding (tested: input molecule concentration 1.3 µM) | 6.2 | – |
| B4 | – | – | – | 6.3 | no binding (tested: input molecule concentration 1.3 µM) |
| B5 | – | – | – | 6.7 | no binding (tested: input molecule concentration 1.3 µM) |
| B6 | – | 9.3 | no binding (tested: input molecule concentration 1.3 µM) | 6.2 | – |
| B7 | no binding (tested: input molecule concentration 1.3 µM) | 10.5 | – | – | – |
| B8 | no binding (tested: input molecule concentration 1.3 µM) | 10.2 | – | – | – |
